Tests used:
[1] = substrate: O=CC[C@H](O)C(=O)O; test: Malate semialdehyde reductase activity; format: biochemical, Metallosphaera sedula; details: other: malate semialdehyde, NADH or NADPH, pH 7.5, 30° C., average of at least two independent experiments
Method: (§1) Test for Malate Semialdehyde Reductase Activity: (L)-Malate semialdehyde+NAD(P)H→(L)-2,4-dihydroxybutyric acid+NAD(P) Reaction scheme:
(§2) The assay mixture contained 200 mM Hepes (pH 7.5), 50 mM KCl, 5 mM MgCl2, 0.24 mM NADH or NADPH, and appropriate amounts of purified enzyme or cell extract. Reactions were started by adding 10 mM (L)-malate semialdehyde (malate semialdehyde was prepared freshly for each test, see Example 3). Enzymatic assays were carried out at 30° C. in 96-well flat bottomed microtiter plates in a final volume of 250 μL. The reactions were followed by the characteristic absorption of NAD(P)H at 340 nm (εNADPH=6.22 mM^−1 cm^−1) in a microplate reader (BioRad 680XR).
Site-directed mutagenesis was carried out using the oligonucleotide pairs listed in Table 6 and the pET28-Mse-SSR plasmid as the template. Point mutations to change the amino acid sequences were introduced by PCR (Phusion 1U, HF buffer 20% (v/v), dNTPs 2.5 mM, direct and reverse primers 1 μM each, template plasmid 200 ng, water). When possible, plasmids created by PCR contained new restriction sites (introduced using silent mutations) in addition to the functional mutation to facilitate identification of mutated clones. The PCR products were digested by DpnI at 37° C. for 2×2 h to remove template DNA, and transformed into NEB DH5-α competent E. coli cells (NEB). The mutated plasmids were identified by restriction site analysis and verified to carry the desired mutations by DNA sequencing.

[2] = substrate: O=CC[C@H](O)C(=O)O; test: Malate semialdehyde reductase activity; format: biochemical, Metallosphaera sedula; details: other: malate semialdehyde, NADH or NADPH, pH 7.5, 30° C., average of at least two independent experiments; remark: listed apart in the source
Method: To identify a suitable 2,4 DHB dehydrogenase, beta-hydroxyacid dehydrogenases from different biological sources were tested for their ability to reduce malate semialdehyde. […] The genes YPR1, 4hbdh, yqhD, and Ms-SSR were amplified using primers listed in Table 5 and cloned into vector pET28 (restriction enzymes see Table 5) yielding plasmids pET28-Sce-YPR1, pET28-Pgi-4-hbdh, pET28-Eco-yqhd and pET28-Mse-SSR, respectively. The proteins were expressed and purified as described in Example 1.
as §1, §2

[3] = substrate: CC(C)(COP(=O)(O)OP(=O)(O)OC[C@H]1O[C@@H](n2cnc3c(N)ncnc32)[C@H](O)[C@@H]1OP(=O)(O)O)[C@@H](O)C(=O)NCCC(=O)NCCSC(=O)CCC(=O)O; test: purified protein, by the assay type; details: other: reductive sense, succinyl-CoA added directly, NADPH, pH 7.5, 37° C., pH 7.5
[4] = substrate: O=CCCC(=O)O; test: purified protein, by the assay type; details: other: oxidative sense, 1 mM NADP, 0.5 mM coenzyme A, pH 9, 37° C., pH 9.0
[5] = substrate: O=CC[C@H](O)C(=O)O; test: purified protein, by the assay type; format: biochemical, Sulfolobus tokodaii; details: other: oxidative sense, 1 mM NADP, 0.5 mM coenzyme A, pH 9, 37° C.
Method: NCBI references of the utilized mcr and sucD protein sequences, and the references for the corresponding natural and synthetic DNA sequences are listed in Table 2.
To purify St-Mcr, frozen cell pellets of expression cultures were resuspended in 0.5 mL of breakage buffer (50 mM Hepes, 300 mM NaCl, pH 7.5) and broken open by four successive rounds of sonication (sonication interval: 20 sec, power output: 30%, sonicator: Bioblock Scientific, VibraCell™ 72437). Cell debris were removed by centrifuging the crude extracts for 15 min at 4° C. at 13000×g and retaining the clear supernatant. Native proteins of E. coli were removed by heat precipitation at 85° C. during 30 min followed by centrifugation at 13000×g. […]
Assay 1 (Reaction Scheme): glyoxylate+acetyl-CoA→malyl-CoA+acetate Malyl-CoA lyase: (L)-Malyl-CoA+NADPH→(L)-Malate semialdehyde+Coenzyme A+NADP Malyl-CoA reductase: Assay 2 (Reaction Scheme): (L)-Malate semialdehyde+Coenzyme A+NADP→(L)-Malyl-CoA+NADPH The reaction mixture according to Assay 1 contained 50 mM MOPS/KOH (pH 7.5), 10 mM glyoxylate, 4 mM acetyl-CoA, 5 mM MgCl2, 0.25 mM NADPH (all products from Sigma), 5 U/mL of malyl-CoA lyase, and appropriate amounts of purified malyl-CoA reductase or cell extract. […] The reactions were followed by the characteristic absorption of NADPH at 340 nm (εNADPH=6.22 mM^−1 cm^−1) in a microplate reader (BioRad 680XR). […]

[6] = substrate: O=CC(=O)O; test: Malyl-CoA lyase assay coupled to citrate synthase / DTNB; format: biochemical, M. extorquens; details: other: pH 7.5, 37° C., 1 mM acetyl-CoA
From the text: Construction of plasmids containing wild-type genes coding for malyl-CoA lyase: The DNA sequences of the mcl genes coding for malyl-CoA lyase in M. extorquens (Arps et al., 1993) and Rhodobacter capsulatus (Meister et al., 2005) were optimized for the expression in Escherichia coli using the GENEius software (Eurofins). The optimized sequences were synthesized by Eurofins MWG OPERON® adding NheI and EcoRI restriction sites upstream of the start codon and downstream of the stop codon of mcl, respectively, which allowed direct cloning of the synthesized DNA fragments into the pET28a+ vector (Novagen) using T4 DNA ligase (Biolabs). […]
Malyl-CoA lyase activity was assayed using a method adapted from (Meister et al., 2005). Malyl-CoA synthesis by malyl-CoA lyase was coupled to the citrate synthase-catalyzed release of coenzyme A which was monitored by its spontaneous reaction with DTNB. […]
The reaction mixture according to Assay 1 contained 50 mM MOPS/KOH (pH 7.5), 0.25 mM DTNB, 5 mM MgCl2, 1 mM acetyl-CoA, 20 U/mL citrate synthetase (all products from Sigma), and appropriate amounts of purified malyl-CoA lyase or cell extract. […] The reactions were followed by the characteristic absorption of DNTB at 412 nm (εDNTB+CoA=13.6 mM^−1 cm^−1) in a microplate reader (BioRad 680XR).

B1: Metallosphaera sedula succinic semialdehyde reductase (Ms-SSR) mutant H39R, SEQ ID No. 32 (Metallosphaera sedula DSM 5348; H39R) (protein)
chain: MKAAVLHTYKEPLSIEDVNISQPKAGEVKIKVKATGLCRSDVNVFEGKTPVPPPVVAGHEISGIVEEVGPGVTRVKPGDRVISAFIHPCGKCGNCVAGKENLCETFSQVRLKGVMPDGTSRLSKDGKEIRTFLGGGFAEYAIVGENALTRVPEDMDLEKVAVLGCAGLTGYGAISSSKIEPGDTVAVIGVGGVGLSTIQLLRASGAGRIIAVGTKKWKLDRAMELGATDVVNSKEIDPVKAIKEITGGGPQVVIEAGGNEDTIHMALDSVRIGGKVVLVGLPPATAMIPIRVASIVRGGIEVVGNYGGRPRVDMPKLLELVRQGRYDPSRLVTGRFRLEEINEAVKMLEEGEAIRSLIIP
[1]
  Km: 1000 µM

B2: Metallosphaera sedula succinic semialdehyde reductase (Ms-SSR) mutant N43H, SEQ ID No. 34 (Metallosphaera sedula DSM 5348; N43H) (protein)
chain: MKAAVLHTYKEPLSIEDVNISQPKAGEVKIKVKATGLCHSDVHVFEGKTPVPPPVVAGHEISGIVEEVGPGVTRVKPGDRVISAFIHPCGKCGNCVAGKENLCETFSQVRLKGVMPDGTSRLSKDGKEIRTFLGGGFAEYAIVGENALTRVPEDMDLEKVAVLGCAGLTGYGAISSSKIEPGDTVAVIGVGGVGLSTIQLLRASGAGRIIAVGTKKWKLDRAMELGATDVVNSKEIDPVKAIKEITGGGPQVVIEAGGNEDTIHMALDSVRIGGKVVLVGLPPATAMIPIRVASIVRGGIEVVGNYGGRPRVDMPKLLELVRQGRYDPSRLVTGRFRLEEINEAVKMLEEGEAIRSLIIP
[1]
  Km: 5000 µM

B3: Metallosphaera sedula succinic semialdehyde reductase (Ms-SSR) double mutant H39R N43H, SEQ ID No. 36 (Metallosphaera sedula DSM 5348; H39R/N43H) (protein)
chain: MKAAVLHTYKEPLSIEDVNISQPKAGEVKIKVKATGLCRSDVHVFEGKTPVPPPVVAGHEISGIVEEVGPGVTRVKPGDRVISAFIHPCGKCGNCVAGKENLCETFSQVRLKGVMPDGTSRLSKDGKEIRTFLGGGFAEYAIVGENALTRVPEDMDLEKVAVLGCAGLTGYGAISSSKIEPGDTVAVIGVGGVGLSTIQLLRASGAGRIIAVGTKKWKLDRAMELGATDVVNSKEIDPVKAIKEITGGGPQVVIEAGGNEDTIHMALDSVRIGGKVVLVGLPPATAMIPIRVASIVRGGIEVVGNYGGRPRVDMPKLLELVRQGRYDPSRLVTGRFRLEEINEAVKMLEEGEAIRSLIIP
[1]
  Km: 1000 µM

B4: Metallosphaera sedula succinic semialdehyde reductase (Ms-SSR), wild type, SEQ ID No. 16 (Metallosphaera sedula DSM 5348) (protein)
chain: MKAAVLHTYKEPLSIEDVNISQPKAGEVKIKVKATGLCHSDVNVFEGKTPVPPPVVAGHEISGIVEEVGPGVTRVKPGDRVISAFIHPCGKCGNCVAGKENLCETFSQVRLKGVMPDGTSRLSKDGKEIRTFLGGGFAEYAIVGENALTRVPEDMDLEKVAVLGCAGLTGYGAISSSKIEPGDTVAVIGVGGVGLSTIQLLRASGAGRIIAVGTKKWKLDRAMELGATDVVNSKEIDPVKAIKEITGGGPQVVIEAGGNEDTIHMALDSVRIGGKVVLVGLPPATAMIPIRVASIVRGGIEVVGNYGGRPRVDMPKLLELVRQGRYDPSRLVTGRFRLEEINEAVKMLEEGEAIRSLIIP
notes: full length 360 aa
[2]
  Km: 4000 µM

B5: Sulfolobus tokodaii malonyl-CoA reductase (St-Mcr), wild type, SEQ ID No. 7 (Sulfurisphaera tokodaii str. 7) (protein)
chain: MILMRRTLKAAILGATGLVGIEYVRMLSNHPYIKPAYLAGKGSVGKPYGEVVRWQTVGQVPKEIADMEIKPTDPKLMDDVDIIFSPLPQGAAGPVEEQFAKEGFPVISNSPDHRFDPDVPLLVPELNPHTISLIDEQRKRREWKGFIVTTPLCTAQGAAIPLGAIFKDYKMDGAFITTIQSLSGAGYPGIPSLDVVDNILPLGDGYDAKTIKEIFRILSEVKRNVDEPKLEDVSLAATTHRIATIHGHYEVLYVSFKEETAAEKVKETLENFRGEPQDLKLPTAPSKPIIVMNEDTRPQVYFDRWAGDIPGMSVVVGRLKQVNKRMIRLVSLIHNTVRGAAGGGILAAELLVEKGYIEK
notes: full length 359 aa
[3]
  Km: 200 µM
  Vmax: 0.98 ± 0.17 µmol/min/mg
[4]
  Km: 1150 µM
  Vmax: 1.7 µmol/min/mg
[5]
  Km: 250 µM
  Vmax: 0.1 µmol/min/mg

B6: M. extorquens malyl-CoA lyase (Me-Mcl), wild type, SEQ ID No. 1 (Methylorubrum extorquens AM1) (protein)
chain: MSFTLIQQATPRLHRSELAVPGSNPTFMEKSAASKADVIFLDLEDAVAPDDKEQARKNIIQALNDLDWGNKTMMIRINGLDTHYMYRDVVDIVEACPRLDMILIPKVGVPADVYAIDVLTTQIEQAKKREKKIGFEVLIETALGMANVEAIATSSKRLEAMSFGVADYAASTRARSTVIGGVNADYSVLTDKDEAGNRQTHWQDPWLFAQNRMLVACRAYGLRPIDGPFGDFSDPDGYTSAARRCAALGFEGKWAIHPSQIDLANEVFTPSEAEVTKARRILEAMEEAAKAGRGAVSLDGRLIDIASIRMAEALIQKADAMGGK
notes: full length 324 aa
[6]
  Km: 500 µM
  Vmax: 36 μmol/(min mg prot)
